As usually defined, the stoichiometry N is a count of units in the complex or per binding partner.

Drawing on publication PMC7112951, this text covers stoichiometry N and KM for steady-state degradation of ^CP7GFP-ssrA, against the parent pseudohexamer for 2 substances.

Assay [1] addresses E. coli ClpP (residues 1-193 of mature ClpP), tag removed, used for cryo-EM (Escherichia coli). Description: cryo-EM structure; ClpX^∆N pseudohexamer 4 µM and ClpP14 1.8 µM (2 µM in the results) in EM buffer (20 mM HEPES, pH 7.5, 100 mM KCl, 25 mM MgCl2, 5 mM ATPγS), 5 min at 25°C before vitrification; doubly capped complexes analysed.
In assay [2] the target is [RKH2-AAA]2 single-chain ClpX^ΔN pseudohexamer (Escherichia coli) (UniProt P0A6H1).

“E. coli ClpP (residues 1-193 of mature ClpP), tag removed, used for cryo-EM (enzyme)” returned a stoichiometry N in assay [1] of 14.
Take ^cp7GFP-ssrA: the KM for steady-state degradation of ^CP7GFP-ssrA, against the parent pseudohexamer in assay [2] was 3 fold.
